The values below come from article PMC5253658.

In one assay the target is TLR4 TIR domain, 670-835 (UniProt Q9QUK6). The assay is described as follows: fluorescence titration of FAM-labelled peptide. Particulars: reference: unphosphorylated Y96 peptide; sites Y96.
Assay [1] deals with FAM-labelled unphosphorylated SCIMP Y96 peptide (amino acids 90-107) (mouse). Briefly: other fluorescence titration; FAM-labelled SCIMP Y96 peptides (aa 90-107) titrated with unlabelled TLR4-TIR; 25 °C, 30 mM Tris pH 7.4, 150 mM NaCl, 1 mM dithiothreitol; curve fit (Grafit).
Assay [2] concerns the target FAM-labelled phosphorylated SCIMP Y96 peptide (amino acids 90-107) (mouse). The description is as above.
The next assay has as its target TLR4 (UniProt Q9QUK6). Briefly: co-immunoprecipitation of SCIMP, TLR4 blot. The settings on record: reference: wild type SCIMP; sites Y96.

With “SCIMP 90-107 (from UniProt Q3UU41) pY96 peptide”, in the assay with TLR4 TIR domain, 670-835, the KD entry is “stronger; reference >2.5 μM”.

What is called Kd is the concentration at which binding is half-saturated. With “His-TLR4-TIR (cytoplasmic TIR domain of mouse TLR4, amino acids 670-835) (from UniProt Q9QUK6 670-835) (domain or fragment)”, the equilibrium dissociation constant (Kd) in assay [1] was more than 2500 nM; in assay [2], 159 nM. Regarding SCIMP (from UniProt Q3UU41) Y96F, the “binding against the reference” value with TLR4 is on record as “lost”.
